# The supplement of paper PMC12764529
# ± gives the half width of the 95% confidence interval.
# How the values were obtained:
# [1] = folding stability dG unfold (combined trypsin and chymotrypsin); higher = more stable
# Method in brief: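 Designed mini-proteins with no cysteine and under 80 residues were kept only if AlphaFold2 dimer inter-PAE was above 15. In a PA-tagged cDNA display construct, they were digested with trypsin and chymotrypsin and then sequenced. K50 was inferred by Bayesian fitting of counts, and unfolding free energy was derived per protease or combined against a sequence-predicted unfolded-state K50 and a shared folded-state K50.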
# [2] = folding stability dG unfold from chymotrypsin proteolysis; higher = more stable
# Protocol: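 Folding stability of de novo designed mini-proteins (<80 aa, no Cys; designed by TrROS, TrMRF, ProteinMPNN and the joint model) was measured by cDNA display proteolysis with trypsin and chymotrypsin. Each protease was used at 11 concentrations in a threefold dilution series plus a no-protease condition. K50 was inferred by Bayesian fitting of sequencing counts, and dG unfold was derived against a sequence-predicted unfolded-state K50 (Tsuboyama et al. method). Sequences shown include variable-length N-terminal GS-type padding (SAGGSAGG...) inside a display construct carrying a PA tag. Rows were kept only if the AF2 dimer inter-PAE was >15, to exclude likely homo-oligomers.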
Sequence,folding stability dG unfold [1] [kcal/mol],folding stability dG unfold [2] [kcal/mol]
SAGGSAGGSAPNIRAKIEPKPDPGGPKLTIDVEDPDNPELPAEEVAKALEEEFPPDKIEPVSAGGSAGGSAG [r3_226_TrROS],< -1,-0.7 ± 0.083
SAGGSAGGSAPRLVRVRGPDGGERVIPVPPDVLADRIPPDVPVRVPVVREDGRFRFRVERGSAGGSAGGSAG [r3_86_TrMRF],< -1,-0.819 ± 0.88
SAGGSAGGSASLDPVVVTVTRYPTGVTTTTVSSRPGGEPVTTTTTYDPVSPVAPLPASRLASAGGSAGGSAG [r3_336_JUSTAS],0.167 ± 0.12,0.59 ± 0.032
SAGGSAGGSASLIVISPPGAPRTIPLEGLVEKGIPEREAAELLEKELGIEINLSEPGVIRAKSAGGSAGGSA [r18_7_JUSTAS],-0.186 ± 0.12,0.249 ± 0.044
SAGGSAGGSASLVVVTTKPPNGPETVELTTDYPPDVRRVTTDPKTGATSEVVVLPADAVLPSAGGSAGGSAG [r3_356_JUSTAS],0.295 ± 0.2,0.873 ± 0.06
SAGGSAGGSASMSTTEITVTELEEPGEGKRLVIETKSFTPEGKEIDSEKVEEEVREELGVKPSAGGSAGGSA [r18_332_JUSTAS],-0.585 ± 0.24,-0.0823 ± 0.079
SAGGSAGGSAVEFTDPNGAEVLEIKPLPDGTTRVLTKLPGGEIPIVTYDPNTGKITTTLLPASAGGSAGGSA [r18_483_JUSTAS],-0.251 ± 0.2,0.135 ± 0.11
SAGGSAGGSDIEIIINPNMSLEQAKKFANYLAQENNIPIEIEIIPPPKPEPEPERDPEDGKPKSAGGSAGGS [r12_159_TrROS],< -1,-0.232 ± 0.36
SAGGSAGGSDKDVKIKVDPERTPDGNYYYRIEIENGKEINIHMPPENMTPEDAKDFVKDIIKKSAGGSAGGS [r12_218_TrROS],< -1,-0.44 ± 0.39
SAGGSAGGSDKIRKALKELGYPYEIDNIDVNVTKNGNPEIEIKYSPGMPPQDQKRIKRAVIDLSAGGSAGGS [r12_352_TrROS],-0.469 ± 0.15,-0.14 ± 0.065
SAGGSAGGSDPTYVEVRTLAGPAGPTRVLIRPSSGEWLEAEFPVDRPVVFFVPADVEVEVLPDSAGGSAGGS [r12_517_TrMRF],0.0902 ± 0.054,0.498 ± 0.048
SAGGSAGGSEEFVILEIPFERKFVVKDPEGGEEREFEFRPVIPLVLPPELAEKLLKSPYLQKKSAGGSAGGS [r12_1015_TrMRF],0.416 ± 0.22,0.721 ± 0.26
SAGGSAGGSEKLEIVKAFVFENEVILIVKKEKEYYVLKLKFKDGKIESLEFIGPVPENDPSLGSAGGSAGGS [r12_154_TrMRF],5.27 ± 0.48,4.92 ± 0.16
SAGGSAGGSELITLTEKASLAVGELNLPSPEELAKKKYPDVKPKNITVSTKPGEGLVTVTVDGKSAGGSAGG [r6_81_JUSTAS],-0.222 ± 0.19,0.207 ± 0.091
SAGGSAGGSENAALENPFANRPPIPPVRAVLYDPDGTPRVLEGRSLEEIRRYAEERGVVVDISSAGGSAGGS [r12_244_TrMRF],-0.165 ± 0.075,0.397 ± 0.072
SAGGSAGGSEPRLILTTFPLPEPGEPVLRLLVIGEDRILAVRVVGEKPELRELDRLDDLLAEQSAGGSAGGS [r12_299_TrMRF],< -1,-0.433 ± 0.46
SAGGSAGGSFELPVPPNTPVDIEATVTRPDGTPATLVDAEPLGDGTFRVTVRYPDGSTETIEVSAGGSAGGS [r12_31_JUSTAS],0.464 ± 0.061,0.959 ± 0.038
SAGGSAGGSGAEITTLPEGRALLRLYDEGGVLVEEAEVEVELDAVLVFDRDNPRIGVFGPDELSAGGSAGGS [r12_1002_TrMRF],-0.203 ± 0.14,0.0264 ± 0.13
